From patent US20140179896A1 (published 2014)
Residue numbers refer to the chain shown, from its start.

B1: E23 (designed binder)
chain: EVVAATPTSLLISWRHHPHFPTRYYRITYGETGGNSPVQEFTVPLQPPTATISGLKPGVDYTITGYAVTVHWNGRELMTPISINYRT
notes: 10Fn3 clone, Del 1-8
B2: 2C6 PR3 (designed binder)
chain: VSDVPRDLEVVAATPTSLLISWRHPHFPTRYYRITYGETGGNSPVQEFTVPLQPPTATISGLKPGVDYTITGYAVTVEPNGHKLAIPISINYRT
notes: tag left out
B3: 2C9 PR3 (designed binder)
chain: B2 chain with V77E, E78A, H82R, K83E, A85R, I86T
notes: tag left out
B4: E15 (designed binder)
chain: EVVAATPTSLLISWRHPHFPTRYYRITYGETGGNSPVQEFTVPLQPPTATISGLKPGVDYTITGYAVTLEPNGRYLMVPISINYRT
notes: 10Fn3 clone, Del 1-8
B5: F10 (designed binder)
chain: B4 chain with L69M, E70A, Y75E, M77L, V78T
notes: 10Fn3 clone, Del 1-8
B6: E16 (designed binder)
chain: B4 chain with L69V, P71E, Y75Q, V78T
notes: 10Fn3 clone, Del 1-8
B7: F9 (designed binder)
chain: B4 chain with L69V, Y75V, M77N, V78T
notes: 10Fn3 clone, Del 1-8
B8: F1 (designed binder)
chain: B4 chain with L69S, E70G, P71R, G73D, Y75E, M77L
notes: 10Fn3 clone, Del 1-8
B9: E22 (designed binder)
chain: B4 chain with E70G, P71R, G73D, Y75E, M77L, V78T
notes: 10Fn3 clone, Del 1-8
B10: E27 (designed binder)
chain: B4 chain with L69V, P71R, R74H, Y75T, V78T
notes: 10Fn3 clone, Del 1-8
B11: EGE3 (designed binder)
chain: B4 chain with L69V, P71R, Y75Q, M77Y, V78T
notes: 10Fn3 clone, Del 1-8
B12: EGE4 (designed binder)
chain: B4 chain with L69V, P71R, Y75V, M77N, V78T
notes: 10Fn3 clone, Del 1-8
B13: EGE11 (SEQ ID NO 72) (designed binder)
chain: B4 chain with L69F, E70G, P71W, G73D, Y75E, M77L, V78I
B14: EGE11 (SEQ ID NO 87) (designed binder)
chain: B4 chain with L69M, E70G, P71K, G73D, Y75E, M77L, V78T
B15: E20 (designed binder)
chain: B4 chain with L69V, P71R, R74Q, Y75V, M77Y, V78T
notes: 10Fn3 clone, Del 1-8
B16: EGE7 (designed binder)
chain: B4 chain with P71R, G73D, Y75V, M77L, V78T
notes: 10Fn3 clone, Del 1-8
B17: E17 (designed binder)
chain: B4 chain with L69V, P71E, Y75V, M77N, V78T
notes: 10Fn3 clone, Del 1-8
B18: EGE10 (designed binder)
chain: B4 chain with L69M, E70G, G73D, Y75E, M77L, V78T
notes: 10Fn3 clone, Del 1-8
B19: EGE8 (designed binder)
chain: B4 chain with L69V, P71R, G73E, Y75V, V78T
notes: 10Fn3 clone, Del 1-8
B20: F6 (designed binder)
chain: B4 chain with L69V, P71Q, Y75V, V78T
notes: 10Fn3 clone, Del 1-8
B21: G4 (designed binder)
chain: B4 chain with L69I, P71K, Y75H, M77N, V78I
notes: 10Fn3 clone, Del 1-8
B22: EGE2 (designed binder)
chain: B4 chain with L69V, P71R, Y75Q, V78T
notes: 10Fn3 clone, Del 1-8
B23: F3 (designed binder)
chain: B4 chain with L69V, P71R, N72D, Y75K, M77Y, V78T
notes: 10Fn3 clone, Del 1-8
B24: EGE9 (designed binder)
chain: B4 chain with L69F, E70G, G73D, Y75E, M77L, V78T
notes: 10Fn3 clone, Del 1-8
B25: FE (designed binder)
chain: B4 chain with L69V, P71R, N72D, Y75E, M77N, V78I
B26: E21 (designed binder)
chain: B4 chain with L69W, E70G, P71Y, N72K, G73D, R74H, Y75E, M77L, V78I
notes: 10Fn3 clone, Del 1-8
B27: F7 (designed binder)
chain: B4 chain with L69V, P71H, Y75V, M77N, V78I
notes: 10Fn3 clone, Del 1-8
B28: EGE1 (designed binder)
chain: B4 chain with P71R, Y75K, V78T
notes: 10Fn3 clone, Del 1-8
B29: EGE5 (designed binder)
chain: B4 chain with P71R, Y75V, M77N, V78T
notes: 10Fn3 clone, Del 1-8
B30: F11 (designed binder)
chain: B4 chain with L69V, P71Q, Y75V, M77N, V78T
notes: 10Fn3 clone, Del 1-8
B31: E24 (designed binder)
chain: B4 chain with L69V, P71R, G73D, Y75V, M77F, V78T
notes: 10Fn3 clone, Del 1-8
B32: EGE6 (designed binder)
chain: B4 chain with P71R, Y75L, M77N, V78T
notes: 10Fn3 clone, Del 1-8
B33: F8 (designed binder)
chain: B4 chain with L69V, P71H, Y75T, L76S, M77F, V78T
notes: 10Fn3 clone, Del 1-8
B34: G3 (designed binder)
chain: B4 chain with L69M, P71R, N72S, Y75E, V78T
notes: 10Fn3 clone, Del 1-8
B35: F4 (designed binder)
chain: B4 chain with L69V, P71R, N72D, Y75T, M77R, V78T
notes: 10Fn3 clone, Del 1-8
B36: G2 (designed binder)
chain: B4 chain with P71R, G73N, Y75E, M77L, V78T
notes: 10Fn3 clone, Del 1-8

Experiments:
[1] = target: T1, human vascular endothelial growth factor receptor-2 Fc chimera (KDR-Fc) (human, UniProt P35968 20-764); assay: radioactive equilibrium binding assay, 1 nM KDR-Fc, % of input bound
T1 construct: range 1-764; also called human VEGFR-2; not shown: human IgG1 Fc
Experimental: (§1) To prepare ³⁵S-labeled binding proteins for analysis, mRNA was prepared as described above for RNA-protein fusion production but the linker ligation step was omitted. The mRNA was expressed using rabbit reticulocyte lysate translation kit (Ambion) in the presence of ³⁵S-labeled Met at 30° C. for 1 hour. Expressed protein was purified on M2-agarose Flag beads (Sigma) as described above. This procedure produced the encoded protein without the nucleic acid tail. In a direct binding assay, VEGF-R2-Fc fusions in concentrations ranging from 0 to 200 nM were added to a constant concentration of the purified protein (0.2 or 0.5 nM) and incubated at 30° C. for 1 hour in buffer B. The receptor-binder complexes were captured using Protein A magnetic beads for another 10 minutes at room temperature using a Kingfisher™ The beads were washed with six reaction volumes of buffer B. The protein was eluted from the beads with 100 μL of 0.1 M KOH. […] of the reaction mixture and elution were dried onto a LumaPlate-96 (Packard) and the amount of ³⁵S on the plate was measured using a TopCount NXT instrument (Packard). The amount of fibronectin-based scaffold protein bound to the target was estimated as a percent of radioactivity eluted from Protein A magnetic beads compare to radioactivity in the reaction mixture. Nonspecific binding of fibronectin-based scaffold proteins to the beads was determined by measuring binding in the absence of KDR-Fc and represented less than 1-2% of the input. Specific binding was obtained through subtraction of nonspecific binding from total binding. Data was analyzed using the GraphPad Prizm software (GraphPad Software, Inc, San Diego, Calif.), fitted using a one site, non-linear binding equation.
T1 sequence (P35968 20-764 limits assumed, change not shown, form in doubt): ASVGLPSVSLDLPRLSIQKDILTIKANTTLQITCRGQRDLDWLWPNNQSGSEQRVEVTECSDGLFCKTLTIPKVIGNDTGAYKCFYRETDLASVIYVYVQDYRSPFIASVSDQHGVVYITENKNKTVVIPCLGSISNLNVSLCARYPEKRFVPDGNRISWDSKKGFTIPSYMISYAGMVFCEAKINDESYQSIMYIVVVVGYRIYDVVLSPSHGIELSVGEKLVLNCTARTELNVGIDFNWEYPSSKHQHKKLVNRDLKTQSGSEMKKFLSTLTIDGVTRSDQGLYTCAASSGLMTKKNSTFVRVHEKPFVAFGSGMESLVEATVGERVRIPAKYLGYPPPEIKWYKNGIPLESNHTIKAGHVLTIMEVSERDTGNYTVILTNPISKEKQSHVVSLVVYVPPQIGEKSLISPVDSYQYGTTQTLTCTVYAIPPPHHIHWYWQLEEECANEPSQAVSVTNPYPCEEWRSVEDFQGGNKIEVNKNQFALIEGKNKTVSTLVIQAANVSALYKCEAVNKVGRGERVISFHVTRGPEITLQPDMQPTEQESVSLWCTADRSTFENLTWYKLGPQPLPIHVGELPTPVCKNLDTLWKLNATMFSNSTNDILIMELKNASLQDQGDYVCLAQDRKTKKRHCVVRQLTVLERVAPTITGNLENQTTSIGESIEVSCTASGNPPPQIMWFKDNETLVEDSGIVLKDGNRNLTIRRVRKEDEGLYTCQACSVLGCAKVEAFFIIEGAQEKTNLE

[2] = target: T2, mouse vascular endothelial growth factor receptor-2 Fc chimera (Flk-1-Fc) (mouse, UniProt P35918 20-762); assay: radioactive equilibrium binding assay, 1 nM Flk-1-Fc, % of input bound
T2 construct: Bought from R&D Systems; also called mouse VEGFR-2; not shown: Fc part of the purchased chimera, not specified
T2 sequence (P35918 20-762, change not shown): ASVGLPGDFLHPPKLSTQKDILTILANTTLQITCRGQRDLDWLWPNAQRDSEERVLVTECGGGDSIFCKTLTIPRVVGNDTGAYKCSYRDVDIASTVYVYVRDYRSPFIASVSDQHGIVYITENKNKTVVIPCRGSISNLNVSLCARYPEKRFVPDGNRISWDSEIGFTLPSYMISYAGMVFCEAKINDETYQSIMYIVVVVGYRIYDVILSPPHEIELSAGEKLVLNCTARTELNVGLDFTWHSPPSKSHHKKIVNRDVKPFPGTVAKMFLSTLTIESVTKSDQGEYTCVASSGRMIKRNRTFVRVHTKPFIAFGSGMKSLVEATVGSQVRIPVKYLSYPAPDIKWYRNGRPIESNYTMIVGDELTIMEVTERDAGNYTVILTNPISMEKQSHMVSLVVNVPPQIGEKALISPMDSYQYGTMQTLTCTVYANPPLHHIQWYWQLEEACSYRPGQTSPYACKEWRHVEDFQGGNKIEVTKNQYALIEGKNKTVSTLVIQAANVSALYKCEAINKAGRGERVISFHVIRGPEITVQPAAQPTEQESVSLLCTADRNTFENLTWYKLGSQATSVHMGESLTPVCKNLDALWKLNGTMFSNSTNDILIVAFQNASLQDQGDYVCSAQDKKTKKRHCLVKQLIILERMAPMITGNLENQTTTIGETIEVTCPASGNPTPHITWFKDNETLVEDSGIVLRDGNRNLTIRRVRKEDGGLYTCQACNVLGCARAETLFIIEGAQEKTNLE
Experimental: as §1

[3] = target: T3, human vascular endothelial growth factor receptor-2 Fc chimera (KDR-Fc) (human, UniProt P35968 20-764); assay: radioactive equilibrium binding, 1 nM KDR-Fc
T3 construct: range 1-764; purchased from R&D Systems; also called hKDR; human VEGF-R2-Fc; not shown: human IgG1 Fc
Method in brief: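 Percent of input bound is specific binding: total ³⁵S eluted from Protein A beads minus nonspecific bead binding without receptor. The binder (0.2 or 0.5 nM) was incubated with titrated VEGF-R2-Fc in buffer B, 30° C, 1 h.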
T3 sequence (P35968 20-764 limits assumed, change not shown, form in doubt): as the sequence (P35968 20-764 limits assumed, change not shown, form in doubt) above

Row | Binder | Binding to 1 nM KDR, % [1] [%] | Binding to 1 nM Flk-1, % [2] [%] | Binding to 1 nM KDR, % [3] [%]
1 | B1 | 36 | 7 | 
2 | B2 |  |  | 5
3 | B3 |  |  | 7
4 | B4 | 52 | 2 | 
5 | B5 | 29 | 1 | 
6 | B6 | 35 | 0 | 
7 | B7 | 32 | 23 | 
8 | B8 | 18 | 2 | 
9 | B9 | 45 | 3 | 
10 | B10 | 37 | 9 | 
11 | B11 | 34 | 38 | 
12 | B12 | 26 | 41 | 
13 | B13 | 50 | 0 | 
14 | B14 | 32 | 1 | 
15 | B15 | 43 | 11 | 
16 | B16 | 31 | 30 | 
17 | B17 | 32 | 10 | 
18 | B18 | 37 | 1 | 

Row | Binder | Binding to 1 nM KDR, % [1] [%] | Binding to 1 nM Flk-1, % [2] [%] | Binding to 1 nM KDR, % [3] [%]
19 | B19 | 26 | 20 | 
20 | B20 | 37 | 2 | 
21 | B21 | 21 | 12 | 
22 | B22 | 42 | 33 | 
23 | B23 | 27 | 15 | 
24 | B24 | 32 | 1 | 
25 | B25 | 12 | 8 | 
26 | B26 | 47 | 1 | 
27 | B27 | 30 | 7 | 
28 | B28 | 30 | 29 | 
29 | B29 | 32 | 47 | 
30 | B30 | 20 | 8 | 
31 | B31 | 24 | 29 | 
32 | B32 | 33 | 40 | 
33 | B33 | 33 | 13 | 
34 | B34 | 28 | 10 | 
35 | B35 | 31 | 18 | 
36 | B36 | 25 | 9 | 
